One molecule from publication doi:10.1101/2025.04.02.646914 can be followed below.

Experiment in all cases: FP
The target of data set [1] is MS2 coat protein WT (bacteriophage MS2, UniProt P03612 2-130).
The target of data set [2] is MS2 coat protein W32A (bacteriophage MS2, UniProt P03612 2-130, W33A).
Data set [3] concerns the target MS2 coat protein N55D (bacteriophage MS2, UniProt P03612 2-130, N56D).

Consider CCUACAUGAGGAUUACCCAUGUU (structured_RNA) [5' fluoro MS2 SL], for which the binding result in data set [1] is “binds”; in data set [2], “no binding”; in data set [3], “no binding”.
